Molecular target: full length nPIST (1st - 463rd aa) (mouse) (UniProt Q8BH60)
Test: SPR

F-actin (filamentous actin) (from UniProt P68135 1-377) (natural protein)
Kd: 13.3 nM
koff: 0.00123 s⁻¹
kon: 92500 M⁻¹ s⁻¹

— paper doi:10.1101/270363
